“And” between values parts separate entries of the source, which are not always exact repeats. Identical values can stand only once.
What was measured:
Assay in all cases: pull-down
[1] = molecular target: GST-NR1-1a (GST fused to the cytoplasmic tail of NR1-1a) (UniProt P35439)
[2] = molecular target: PKA phosphorylated GST-NR1-1a
[3] = molecular target: PKC-phosphorylated GST-NR1-1a

importin α pulled down (immunoblot signal, a.u.) [1]: 0.94 a.u. and 1.43 a.u. | importin α pulled down (immunoblot signal, a.u.) [2]: 1.33 a.u. | importin α pulled down (immunoblot signal, a.u.) [3]: 0.378 a.u.
Substance: importin α (endogenous, rat brain) (from UniProt P83953 1-538) (natural protein)

— PMC2819930
